Like-named read-outs stand apart in the source and are kept apart here.
Key:
[1] = target: Zfp206SCANΔH1–Zfp110SCAN fusion protein (not stated | mouse) (UniProt Q3URR7); test: SEC
[2] = target: Zfp206SCAN–Zfp110SCAN ΔH1 fusion protein (not stated | mouse) (UniProt Q3URR7); test: SEC
SEC [3] = target: the molecule itself; test: SEC
[4] = target: the molecule itself
SEC [5] = target: the molecule itself; test: SEC; remark: listed apart in the source

“Zfp206SCANΔH1–Zfp110SCAN fusion protein (from UniProt Q3URR7 36-128)” showed a stoichiometry N [1] of 2.

“Zfp206SCAN–Zfp110SCAN ΔH1 fusion protein (from UniProt Q3URR7 36-128)” showed a stoichiometry N [2] of 2.

B1: Zfp110SCAN (SCAN domain of Zfp110) (domain or fragment, mouse, UniProt A0A0R4J249 154-247, looked up)
chain: RLTDTEASRQKFRHFQYEESAGPQKAMSQLRKLCHQWLQPNTRSKKQILELLVLEQFLNALPEKFRVWVESQHPEDCKAVVALLENMTSVSKDD
For B1, the “stoichiometry N” value (SEC [3]) was 2.

B2: Zfp206SCAN (SCAN domain of Zfp206, tag-free) (domain or fragment)
chain: GRPRPEVAHQLFRCFQYQEDMGPRASLGRLRELCNHWLRPALHTKKQILELLVLEQFLSVLPPHVLSRLHGAPLRDGEEVAQLEGVPRDISHM
B2 was tested, and the “stoichiometry N” value (SEC [3]) was 2.

B3: MBP-Zfp206SCAN (domain or fragment)
chain: GRPRPEVAHQLFRCFQYQEDMGPRASLGRLRELCNHWLRPALHTKKQILELLVLEQFLSVLPPHVLSRLHGAPLRDGEEVAQLEGVPRDISHM
With B3 the “stoichiometry N” value [4] was 2.

B4: Zfp206SCAN–ZNF174SCAN fusion protein (other)
chain: RPRPEVAHQLFRCFQYQEDMGPRASLGRLRELCNHWLRPALHTKKQILELLVLEQFLSVLPPHVLSRLHGQPLRDGEEVVQLLEGVPRDISHMRQGFRHFCYQEVSGPQEALSCLQQLCRQWLQPELHTKEQILELLVMEQFLVILPPEIQAQVWHRYPKSSREIVTLVEDLHR
For B4, the “stoichiometry N” value (SEC [5]) was 2.
